From the DeepSol protein solubility set

Test: soluble on expression in E. coli; label from the status in PepcDB or PDB records

Sequence	soluble on expression in E. coli
MKIVAITSCPNGIAHTYMAQEKLEQVAKEMGVDIKVETQGGVGAENVLTTQDIEEADGVIIAADKQVDLSRFVGKRLINENVREGIHNPRGLIQRIINQDAPIYQSETN	not soluble
MTTVRQRIDTQHRDAIHDAQLNIYGSRLATCGSDRLVKIFEVRPNGQSYPMAELVGHSGPVWKVSWAHPKYGGLLASASYDKKVIIWNEQQGRWQKAYEWAAHEASTTCVAFAPHQYGLMLASASADGDIGILRYDNSSNEWISSKIQKCHEQGVNSVCWAPGSADPAAKKRLVSAGNDKNVKIWALSQFGAKIFRDNGSKCHVTIRNARE	soluble
MRFAPFTRQRHHNREQIKQHPEWFPAPLKASDRRWQALAENNHFLSSDHLHNITEVAIHRLEQQLGKPYVWGGTRPDQGFDCSGLVFYAYNKILEAKLPRTANEMYHYRRATIVANNDLRRGDLLFFHIHSREIADHMGGYLGDGQFIESLRTGETIRVSRLAEPFWQDHFLGARRILTEEMIL	not soluble
MGSDKIHHHHHHMNATQTQMRREINEIPDAVERLLTEGAGAVAATAADIRDLQPSYLLSVARGSSDHASTYLKYASELLLGLPMASVGPSVKSIYGVDLHCKGALSISVSQSGKSPDIVQLTSAFRDKGAYTVAITNDAGSPLAETAAAVLPIHAGPELSVAATKTFVTSLVAGLWVLAEVKQDAALLEAILRLPGHLAKAKDCDWSAAIEAIDGQSLYTLGRGPSWAISNEAALKFKETCQIHAESYSAAEVLHGPVSIVGENFPVIAFAAADAAEESVGEMVAALGDKGARVFATTHKAKGAEVLPHVRTDHWITDPIASIVSFYGMVEAVAARRGVNPDAPRHLNKVTETV	not soluble
MGSDKIHHHHHHMELKEHFNNKIFKLISETADELGLECYVVGGYVRDIFLKRPSKDIDVVVVGSGIEMAQAFGRKLGRGARVSVFKNFGTAQIKYHDTEVEFVGARKESYSHDSRKPVVENGTLEDDQNRRDFTINAMAVCLNKARFGELVDPFNGLDDLKERTIRTPLDPDITFSDDPLRMMRCVRFATQLNFYIDDTTFEALSRNKERIHIISKERIADELNKILLAPIPSKGFIELDRCGLLPLIFPELVALQGVETRNGRAHKDNFYHTLEVVDNISKHTDNLWLRWATLLHDIGKPRTKRWEPRIGWTFHNHNFIGEKMVPDLFRKMKLPMNEKMKYVQKLVSLHMRPIVIADDVVTDSAVRRLLFEAGDDIDDLMMLCEADITSKNEARKQKFLDNFKLVRQKLKDLEEKDRIRNFQPPVDGEEIMRIFDLQPCREIGSLKSSIKDAILDGIIPNEHDAALEHMLKKAKSMGLTPKNL	not soluble
MDPALAAQMSEAVAEKMLQYRRDTAGWKICREGNGVSVSWRPSVEFPGNLYRGEGIVYGTLEEVWDCVKPAVGGLRVKWDENVTGFEIIQSITDTLCVSRTSTPSAAMKLISPRDFVDLVLVKRYEDGTISSNATHVEHPLCPPKPGFVRGFNHPCGCFCEPLPGEPTKTNLVTFFHTDLSGYLPQNVVDSFFPRSMTRFYANLQKAVKQFHE	soluble
MCKNPISIIIRIQHNIKVLPEILKACEQLHPLEIILTINGYIDDSIDIAQSYNCKIITLEEPSELNNCYVIGATKAKGKYLLFLDANYIIQSSLLTQFLQPLLDESADIVLNNLDDFFYQKQKPTIEMIWQQVTNHFFHRPDLHVNSLLFPPYAITKEILDAITPESLLNPILAQMKIIKNKFRISNHFKISIPQIPSFPSKQLIRYHLEAIENWVNILQDSRGNYTDNNRRRDIILELQNGEQRAIPKIITGKKFYSNTYGNKQLSIIIPVQNEEKTIESIIFEVQKLKPLEIIIIVNGSTDKTEELAKNCGATVITYKEALGIDTGRAVGAYFAKGDILLFIDGDFLIPSSDLLPFVQSVQNGTDLALNKLEHYYMYRVPYTIVTACKHVVNLACNRKDLGMGSTTAVPHAFSRKCIDTIGFDSLLSPTLSQVKTILAGLHVQNVHSIDVDKINRVRPEKHFSQEGYLSLATQQIIGDHIEAISYLIEQKRNTEYFLEHHHHHH	not soluble
MSLASDPFEAPIPGLHACIDPIAVAHNLEVLRQRLGVGVDGPRIWATVKADAYGHGLHNVLPGLRAADGIAVRHLHEAHQCRRVGWSGPIMVYAGLTHEREAALLTLQQLHLVITDMTQLEWLPGKPLYSCAPWIWLRYIGATRLGGLDASEYRRAYARCRELQQHGALRGVGHLNHYANAASVGDLEREHADFEACIRGLPGPVSTCNSAAACVLPTMAARTDWVRPGLALYGVSPIPGREGHHHHHH	not soluble
MFDIGFSELLLVFVIGLIVLGPQRLPVAVKTVAGWIRALRSLATTVQNELTQELKLQEFQDSLKKVEKASLENLTPELKASMDELRQAAESMKRTYSANDPEQASDEAHTIHNPVVKGNETQHEGVTPAAAETQASAPEQKPEPVKANVPESTETASVATIDAEKKSAAPVVESSPSSSDKPLEHHHHHH	not soluble
MLEFHNVPLKTILRRAIMSLPTNFNDILRFFEKDYDTAKEDNALSARGQFLQLYPLNHLKKMTLDDYVIGKGTASFCACVEVKTRTWANMQGATALKFGIYYGKSKSDPTVRYRFTQKFGDDDSTNKEVFANVKDALLDLIQSGKELDFRAIDENPLSQMFKAKILSLYFPEHFINICSKDHLKEIAMEMGIKEQQFISKYQHLLFKKKLEHKITRNWSNPKYMSFLYAQFIRKDLSSAPAVIVKKPQKRNHPEVNFEEITDNRDLIGKKSEEYALNWEKNRLIGLGYSKLAEEIDDRRNRPTYGYDFLSFNAPGDERYIEVKSIGRDGKEGAFRFFLSGNELTVSNLSNHSKNYYFYLVQYGKDGEPCNLYVKHAQDLYTNSEMSPCAYVVRFDLEEPALEHHHHHH	soluble
MGSDKIHHHHHHMKKVAIVILNWNGRKLMEEFLPSVVSNSPEWAEVIVADNGSTDDSIEMLKAKFPTVGIISFNQNYGFAEGYNQALKRLDHEYCVLLNSDVEVTPNWLDAPIATLDSDPSIACVQPKIRAQRNKEYFEYAGAAGGYIDKYGYPFCRGRILHIVEKDEGQYDTPAYILWATGACLFVRTATYKEVGGLDAGFFAHQEEVDMCWRLRSRGYRLVCVPQSIVYHVGGATLNAESPRKTFLNFRNSLLMLYKNSREADLKHVMRIRFWLDYIAAAKFLMEGHIQNAKAVYEARKAYHQLKPEYAPKRKENLEKSTLSTIPELMRDSLILAFYLKGKRTFKAIKDRR	not soluble
VRDVLDNQEFGFTGLHVAAAVADTLGTGDTLFAAASNSIRDLSLVGMPFDGVDTFSPRGVAGIDGSVAQAIGTSLAVQSRHPDEIRAPRTVALLGDLSFLHDIGGLLIGPDEPRPENLTIVVSNDNGGGIFELLETGADGLRPNFERAFGTPHDASIADLCAGYGIEHQVVDNLQDLIIALVDTTEVSGFTIIEASTVRDTRRAQQQALMDTVH	not soluble
MADYYGLFTSDTRSVSDGESDGERRLRRSRRKRGGGRFRPYSPDYSDDEKTKPTKKNQKRPDKQDRFGMAPPNSTQFLLEDREARADAEFENEQKFEAAERRRVRTMSGSYEHMRPAYWCTIEPATTTADFGSDDNNDLDSTSGESEADREMEREFETDYLEVKRERIQSMTRSQLAAELLERDQDTQVLTRELGSKETENRHLRSLLSAHGISPDEPVTSTTAIVVGQSKSPVVAN	not soluble
MDTSLPSAILNNMVTATLILDDGLAIRYANPAAELLFSQSAKRIVEQSLSQLIQHASLDLALLTQPLQSGQSITDSDVTFVVDGRPLMLEVTVSPITWQRQLMLLVEMRKID	soluble
HMGARASVLSGGELDKWEKIRLRPGGKKQYKLKHIVWASRELERFAVNPGLLETSEGCRQILGQLQPSLQTGSEELRSLYNTIAVLYCVHQRIDVKDTKEALDKIEEEQNKSKKKAQQAAADTGNNSQVSQNY	soluble
MKGLFVTIEGPEGSGKTTLIQSLLPYFEQKEQKVMATREPGGIAISEDIRTILHKQEYTMMEARTEALLYAAARRQHLVEKVMPALNEDYLVLCDRFIDSSLAYQGYARGLGMDKVFEINRFATEDCMPSLTIYLDIEPEVGLARIAKDAGREVNRLDMEDISFHKRVREGYLQVVERFSDRIVLVNADQPMEKLIEEVIQVIEDKLL	soluble
MGSDKIHHHHHHMILMKSYYRLLGHYYLLLRFFKNLRDLGVSLLELENILGVIYWYLFKQKYSTRCRCCSELYINQTNINPYYFASACKLKKMGLPVEIRNSVFYYDGLEVYPTVIPYIARVIKYNWQVFNMKGNPMISFTVKNHDFKAVLLKGYEGLLQFYEQFILEQYGMFDYKDKTVIDIGGFIGDTALYFYSKEARKIVSFEPSKKNYTILIKNITLNNIKNVIPINAGVWDENTKGIITNPAPTAYRVKEESKGDVALVSILDIIDSYRPDIIKMDCEGCEYKVFEKLLETGYIYDVPEYVFEAHGNIKNELLSKLRSLDEFRLCVHSDLGNMAIVSLKKL	not soluble
MGSDKIHHHHHHMLSVTRYSIKNVRLKPWVKFIWYFETKSNILLNNKLLPTDSIDIILNLSDVMEYKIENQDYTASNMHFNGIRDKHGFIIQHGNIRVIGISFYPFGLYPFLKIPISEFNRQIVDLEAVSQLFAKKLEESLNPIQSVEKIVLYLEEVLLSILEEDLISNKYVKLLNSFIYVNRYSNIKAFCDDTNINIKTLERICLKYTGYTPKILKRIYRFKMASNQLIYNYKDDELFDFIYENEYYDQAHFIKEFKKFSGTSPIKFSGENKTIKENIKYSYL	not soluble
DKEWNEKELQKLHCAFASLPKHKPGFWSEVAAAVGSRSPEECQRKYMENPRGKGSQKHVT	soluble
MGSDKIHHHHHHDNNVVVLNGSGRSGSNGYAFYKWLLINHPEFNVTLVEPWPSSHLKWETWQKIGAARYVITTHQPFKVRKHQINVQLWHGVPLKRMGIMANNTRYKDNKRNEKLWHKNADIVASSSDLYETLMSACMAIESKKYQKLGFPRLDLLSKPVISKKELLKDLFDQEDEQAAIGIYMPTFRYELEDKSIMQKIKEGNFFAFADFDGEKLNKELKKRHQYLIVKLHPYEMRLFDNFKSQYSNISFLNNDYLFDHNYDLYELLGDTDFLMTDFSSIYFDYLHLNKPIVFVTNFLKQYEKTRGLLMGPYSEITPGISVNSEQELINNLDHLDNQQIVNRRIYWLNLTNQVHGDSYCENVFKYMTQEYRG	not soluble
MAKEKTVYVCSNCGQESPKWVGKCPSCGEWNTYVEEIVRKETTNRRPVSGIETQKAKPVILSEIEADDEPRINMHDDELNRVLGGGLVPGSLVLIGGEPGIGKSTLVMQTVLRMPDKKILYVSGEESARQLKLRADRLSEVSSDCLIVCETSLEQIYVHIKNTSPDLVIIDSIQTISTENIESSPGSIAQVRECSASILRFAKETHTPVLLIGHINKEGSIAGPKVLEHIVDTVLQFEGDQHYMYRILRSIKNRFGSTAELGIYEMRQDGLRQVSNPSELLLSQDHEGMSGVAIASAIEGVRPFLIETQALVSSAVYGNPQRSATGFDIRRMNMLLAVLEKRVGFKLAQKDVFLNIAGGLKVNDPAIDLAVISAILSSNMDAAVEPEVCMAGEIGLSGEIRPVNRIEQRIGEAEKLGFKRFLLPKYNLQGIDTQKLKIELVPVRKVEEAFRALFG	not soluble
DITGIPTGFNELDKMTAGFQRNDLIIVAARPSVGKTAFALNIAQNVATKTDENVAIFSLEMGAEQLVMRMLCAEGNINAQNLRTGALTSDDWQKLTIAMGTLSNSGIYIDDTPGVRVNEIRSKCRRLKQETGLGMIVIDYLQLIAGSGRGGENRQQEVSEISRSLKALARELEVPVIALSQLSRSVEQRQDKRPMMSDI	not soluble
MGHHHHHHSHSSPEREITLVNLKKDAKYGLGFQIIGGEKMGRLDLGIFISSVAPGGPADLDGCLKPGDRLISVNSVSLEGVSHHAAIEILQNAPEDVTLVISQPKEKISKVPSTPVHLTNEMKNYMKKSSYMQDSAIDSSSKDHHWSRGTLRHISENSFGPSGGLREGSLSSQDSRTESASLSQSQVNGFFASHLGDQ	not soluble
